Reference: PMC10911789

Target: recombinant spike glycoprotein RBD from SARS-CoV-2 (BEI Resources NR-52366) (SARS-CoV-2) (UniProt P0DTC2)
Assay: BLI

recombinant human GAPDH (glyceraldehyde-3-phosphate dehydrogenase), P04406 1-335 (enzyme; other documents disagree on this pair), sequence (P04406 whole entry): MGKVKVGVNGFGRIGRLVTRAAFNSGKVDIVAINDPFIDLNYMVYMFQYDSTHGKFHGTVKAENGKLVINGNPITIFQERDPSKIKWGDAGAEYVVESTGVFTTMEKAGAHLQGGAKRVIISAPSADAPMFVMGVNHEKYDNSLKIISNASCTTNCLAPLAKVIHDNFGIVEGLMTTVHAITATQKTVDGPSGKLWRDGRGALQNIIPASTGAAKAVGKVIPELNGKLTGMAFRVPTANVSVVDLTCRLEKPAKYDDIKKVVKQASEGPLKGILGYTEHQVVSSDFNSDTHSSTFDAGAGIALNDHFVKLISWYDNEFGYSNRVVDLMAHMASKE

Substance: recombinant human GAPDH (glyceraldehyde-3-phosphate dehydrogenase), P04406 1-335 (enzyme; other documents disagree on this pair)
- Kd: 11.8 nM
